Laboratory results: patent US5668265, “Bi-directional oligonucleotides that bind thrombin” (Becton Dickinson and Company)

Target: alpha-thrombin (Homo sapiens, UniProt P00734;P00734 P00734:315-363,P00734:364-622)
Assay: SPR; apparent; solution competition vs immobilized consensus aptamer; same buffer, 25 C

Binder | Kd
GGTTGGTGTGGTTGG (structured_DNA) [Compound 10 (consensus thrombin aptamer)] | 6 nM
GGTTGGTT (ssDNA) [Compound 12 (single segment)] | 1500 nM
